{
  "source": "the RNAGym collection of RNA variant scans (doi:10.1021/acssynbio.7b00057)",
  "parents": {"B1": {"name": "Pistol ribozyme (parent)", "chain": "GGGUCGUUGUUCCAUAAUCGCGUGGAUAUGGCACGCAAGUUUCUACCGGGCACCGUAAAUGUCCGACUGGAGCCGUUCGGGCGGCUAUAAACAGACCUCAGGCCCGAAGCGUGGCGGCACCUGCCGCCGGUGGUAAAAAAGAUCGGAAGAGCACACGUCU"}},
  "data": [
    {"variants_of": "B1", "assay": "aptazyme ON/OFF ratio, guanine; higher = stronger switching; co-transcriptional cleavage with and without guanine", "values": [
      {"variant": "GGGUCGUCCUCAUAUAAUCGCGUGGAUAUGGCACGCAAGUUUCUACCGGGCACCGUAAAUGUCCGACUGGAGCCGUUCGGGCGGCUAUAAACAGACCUCAGGCCCGAAGCGUGGCGGCACCUGCCGCCGGUGGUAAAAAAGAUCGGAAGAGCACACGUCU", "note": "[U8C G9C U11C C12A C13U]", "aptazyme ON/OFF ratio": 1.06},
      {"variant": "GGGUCGUCCUCAAAUAAUCGCGUGGAUAUGGCACGCAAGUUUCUACCGGGCACCGUAAAUGUCCGACUGGAGCCGUUCGGGCGGCUAUAAACAGACCUCAGGCCCGAAGCGUGGCGGCACCUGCCGCCGGUGGUAAAAAAGAUCGGAAGAGCACACGUCU", "note": "[U8C G9C U11C C12A C13A]", "aptazyme ON/OFF ratio": 1.03},
      {"variant": "GGGUCGUCCUCAGAUAAUCGCGUGGAUAUGGCACGCAAGUUUCUACCGGGCACCGUAAAUGUCCGACUGGAGCCGUUCGGGCGGCUAUAAACAGACCUCAGGCCCGAAGCGUGGCGGCACCUGCCGCCGGUGGUAAAAAAGAUCGGAAGAGCACACGUCU", "note": "[U8C G9C U11C C12A C13G]", "aptazyme ON/OFF ratio": 1.07},
      {"variant": "GGGUCGUCCUCGCAUAAUCGCGUGGAUAUGGCACGCAAGUUUCUACCGGGCACCGUAAAUGUCCGACUGGAGCCGUUCGGGCGGCUAUAAACAGACCUCAGGCCCGAAGCGUGGCGGCACCUGCCGCCGGUGGUAAAAAAGAUCGGAAGAGCACACGUCU", "note": "[U8C G9C U11C C12G]", "aptazyme ON/OFF ratio": 1.26},
      {"variant": "GGGUCGUCCUCACAUAAUCGCGUGGAUAUGGCACGCAAGUUUCUACCGGGCACCGUAAAUGUCCGACUGGAGCCGUUCGGGCGGCUAUAAACAGACCUCAGGCCCGAAGCGUGGCGGCACCUGCCGCCGGUGGUAAAAAAGAUCGGAAGAGCACACGUCU", "note": "[U8C G9C U11C C12A]", "aptazyme ON/OFF ratio": 1.08},
      {"variant": "GGGUCGUCCUCUCAUAAUCGCGUGGAUAUGGCACGCAAGUUUCUACCGGGCACCGUAAAUGUCCGACUGGAGCCGUUCGGGCGGCUAUAAACAGACCUCAGGCCCGAAGCGUGGCGGCACCUGCCGCCGGUGGUAAAAAAGAUCGGAAGAGCACACGUCU", "note": "[U8C G9C U11C C12U]", "aptazyme ON/OFF ratio": 1.08},
      {"variant": "GGGUCGUCCUCUGAUAAUCGCGUGGAUAUGGCACGCAAGUUUCUACCGGGCACCGUAAAUGUCCGACUGGAGCCGUUCGGGCGGCUAUAAACAGACCUCAGGCCCGAAGCGUGGCGGCACCUGCCGCCGGUGGUAAAAAAGAUCGGAAGAGCACACGUCU", "note": "[U8C G9C U11C C12U C13G]", "aptazyme ON/OFF ratio": 1.02},
      {"variant": "GGGUCGUCCUCUAAUAAUCGCGUGGAUAUGGCACGCAAGUUUCUACCGGGCACCGUAAAUGUCCGACUGGAGCCGUUCGGGCGGCUAUAAACAGACCUCAGGCCCGAAGCGUGGCGGCACCUGCCGCCGGUGGUAAAAAAGAUCGGAAGAGCACACGUCU", "note": "[U8C G9C U11C C12U C13A]", "aptazyme ON/OFF ratio": 1.05},
      {"variant": "GGGUCGUCCUCUUAUAAUCGCGUGGAUAUGGCACGCAAGUUUCUACCGGGCACCGUAAAUGUCCGACUGGAGCCGUUCGGGCGGCUAUAAACAGACCUCAGGCCCGAAGCGUGGCGGCACCUGCCGCCGGUGGUAAAAAAGAUCGGAAGAGCACACGUCU", "note": "[U8C G9C U11C C12U C13U]", "aptazyme ON/OFF ratio": 1.07},
      {"variant": "GGGUCGUCCUACGAUAAUCGCGUGGAUAUGGCACGCAAGUUUCUACCGGGCACCGUAAAUGUCCGACUGGAGCCGUUCGGGCGGCUAUAAACAGACCUCAGGCCCGAAGCGUGGCGGCACCUGCCGCCGGUGGUAAAAAAGAUCGGAAGAGCACACGUCU", "note": "[U8C G9C U11A C13G]", "aptazyme ON/OFF ratio": 1.12},
      {"variant": "GGGUCGUCCUACUAUAAUCGCGUGGAUAUGGCACGCAAGUUUCUACCGGGCACCGUAAAUGUCCGACUGGAGCCGUUCGGGCGGCUAUAAACAGACCUCAGGCCCGAAGCGUGGCGGCACCUGCCGCCGGUGGUAAAAAAGAUCGGAAGAGCACACGUCU", "note": "[U8C G9C U11A C13U]", "aptazyme ON/OFF ratio": 1.07},
      {"variant": "GGGUCGUCCUACAAUAAUCGCGUGGAUAUGGCACGCAAGUUUCUACCGGGCACCGUAAAUGUCCGACUGGAGCCGUUCGGGCGGCUAUAAACAGACCUCAGGCCCGAAGCGUGGCGGCACCUGCCGCCGGUGGUAAAAAAGAUCGGAAGAGCACACGUCU", "note": "[U8C G9C U11A C13A]", "aptazyme ON/OFF ratio": 1.04},
      {"variant": "GGGUCGUCCUCGAAUAAUCGCGUGGAUAUGGCACGCAAGUUUCUACCGGGCACCGUAAAUGUCCGACUGGAGCCGUUCGGGCGGCUAUAAACAGACCUCAGGCCCGAAGCGUGGCGGCACCUGCCGCCGGUGGUAAAAAAGAUCGGAAGAGCACACGUCU", "note": "[U8C G9C U11C C12G C13A]", "aptazyme ON/OFF ratio": 1.2},
      {"variant": "GGGUCGUCCUCGGAUAAUCGCGUGGAUAUGGCACGCAAGUUUCUACCGGGCACCGUAAAUGUCCGACUGGAGCCGUUCGGGCGGCUAUAAACAGACCUCAGGCCCGAAGCGUGGCGGCACCUGCCGCCGGUGGUAAAAAAGAUCGGAAGAGCACACGUCU", "note": "[U8C G9C U11C C12G C13G]", "aptazyme ON/OFF ratio": 1.26},
      {"variant": "GGGUCGUCCUCGUAUAAUCGCGUGGAUAUGGCACGCAAGUUUCUACCGGGCACCGUAAAUGUCCGACUGGAGCCGUUCGGGCGGCUAUAAACAGACCUCAGGCCCGAAGCGUGGCGGCACCUGCCGCCGGUGGUAAAAAAGAUCGGAAGAGCACACGUCU", "note": "[U8C G9C U11C C12G C13U]", "aptazyme ON/OFF ratio": 1.15},
      {"variant": "GGGUCGUCCUAUGAUAAUCGCGUGGAUAUGGCACGCAAGUUUCUACCGGGCACCGUAAAUGUCCGACUGGAGCCGUUCGGGCGGCUAUAAACAGACCUCAGGCCCGAAGCGUGGCGGCACCUGCCGCCGGUGGUAAAAAAGAUCGGAAGAGCACACGUCU", "note": "[U8C G9C U11A C12U C13G]", "aptazyme ON/OFF ratio": 1.12},
      {"variant": "GGGUCGUCCUAUUAUAAUCGCGUGGAUAUGGCACGCAAGUUUCUACCGGGCACCGUAAAUGUCCGACUGGAGCCGUUCGGGCGGCUAUAAACAGACCUCAGGCCCGAAGCGUGGCGGCACCUGCCGCCGGUGGUAAAAAAGAUCGGAAGAGCACACGUCU", "note": "[U8C G9C U11A C12U C13U]", "aptazyme ON/OFF ratio": 1.07},
      {"variant": "GGGUCGUCCUCCCAUAAUCGCGUGGAUAUGGCACGCAAGUUUCUACCGGGCACCGUAAAUGUCCGACUGGAGCCGUUCGGGCGGCUAUAAACAGACCUCAGGCCCGAAGCGUGGCGGCACCUGCCGCCGGUGGUAAAAAAGAUCGGAAGAGCACACGUCU", "note": "[U8C G9C U11C]", "aptazyme ON/OFF ratio": 1.06}
    ]}
  ]
}
